Results taken from article PMC5027577.

How the values were obtained:
[1] = molecular target: T1, TGF-β type I receptor (TRI) (human (endogenous in HeLa)), P36897; test: live-cell single-molecule TIRFM tracking (membrane on-times); EGFP-Smad3 or EGFP-M-Smad3 at low expression in living HeLa cells, unstimulated; 10 Hz; cumulative histograms of on-times fitted with a single exponential; details: remark: other sources report otherwise
T1 chain: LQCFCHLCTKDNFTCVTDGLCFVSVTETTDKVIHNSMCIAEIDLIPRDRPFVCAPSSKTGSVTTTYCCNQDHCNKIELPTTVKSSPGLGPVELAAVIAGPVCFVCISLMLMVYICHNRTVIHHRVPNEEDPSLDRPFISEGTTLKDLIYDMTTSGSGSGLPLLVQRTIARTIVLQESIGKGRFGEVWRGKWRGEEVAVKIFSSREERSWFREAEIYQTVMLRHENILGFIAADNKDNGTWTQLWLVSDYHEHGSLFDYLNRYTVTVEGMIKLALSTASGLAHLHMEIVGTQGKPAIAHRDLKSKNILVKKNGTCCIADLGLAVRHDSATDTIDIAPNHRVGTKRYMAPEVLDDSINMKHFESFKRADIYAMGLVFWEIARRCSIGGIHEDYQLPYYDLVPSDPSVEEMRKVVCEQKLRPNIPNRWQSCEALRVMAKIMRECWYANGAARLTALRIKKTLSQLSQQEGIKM

[2] = molecular target: T1, TGF-β type I receptor (TRI) (human …); test: live-cell single-molecule TIRFM tracking (membrane on-times); EGFP-Smad3 or EGFP-M-Smad3 at low expression in living HeLa cells treated with 10 ng/ml TGF-β1 for 15 min at 37 °C; 10 Hz; cumulative histograms of on-times fitted with a single exponential; details: remark: other sources report otherwise

B1: EGFP-Smad3, P84022 1-425 (natural protein)
chain: MSSILPFTPPIVKRLLGWKKGEQNGQEEKWCEKAVKSLVKKLKKTGQLDELEKAITTQNVNTKCITIPRSLDGRLQVSHRKGLPHVIYCRLWRWPDLHSHHELRAMELCEFAFNMKKDEVCVNPYHYQRVETPVLPPVLVPRHTEIPAEFPPLDDYSHSIPENTNFPAGIEPQSNIPETPPPGYLSEDGETSDHQMNHSMDAGSPNLSPNPMSPAHNNLDLQPVTYCEPAFWCSISYYELNQRVGETFHASQPSMTVDGFTDPSNSERFCLGLLSNVNRNAAVELTRRHIGRGVRLYYIGGEVFAECLSDSAIFVQSPNCNQRYGWHPATVCKIPPGCNLKIFNNQEFAALLAQSVNQGFEAVYQLTRMCTIRMSFVKGWGAEYRRQTVTSTPCWIELHLNGPLQWLDKVLTQMGSPSIRCSSVS
koff [1]: 1.96 s⁻¹ | time constant of membrane on-times (τu) [1]: 0.51 s | koff [2]: 1.67 s⁻¹ | time constant of membrane on-times (τs) [2]: 0.6 s
